Results on two molecules are retold here after US20250340631A1 (HARBOUR BIOMED SHANGHAI, published 2025).

One experiment addresses T1, human CLDN2 (human, UniProt P57739 1-230).
T1 construct: whole, on cells; also called hCLDN2
T1 sequence (looked up): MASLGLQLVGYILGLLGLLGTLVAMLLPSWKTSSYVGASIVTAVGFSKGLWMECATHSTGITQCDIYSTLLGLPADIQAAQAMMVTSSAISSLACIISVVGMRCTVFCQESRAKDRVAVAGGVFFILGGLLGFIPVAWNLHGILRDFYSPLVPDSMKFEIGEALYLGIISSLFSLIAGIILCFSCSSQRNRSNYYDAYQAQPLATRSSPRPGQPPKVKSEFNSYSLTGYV
Description: FACS on HEK293 cells transiently expressing human CLDN2.

A further experiment deals with human CLDN18.2 (human). Description: cell-based or functional assay.
Experiment [1] deals with T2, Biotinylated murine CD3E&D (murine, UniProt P22646 22-108; P04235 22-105, biotin label).
T2 construct: also called CDD-M82W5
T2 sequence (P22646 22-108, chain 1 of 2): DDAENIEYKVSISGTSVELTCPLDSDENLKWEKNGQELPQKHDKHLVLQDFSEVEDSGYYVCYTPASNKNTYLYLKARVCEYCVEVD
T2 sequence (P04235 22-105, chain 2 of 2): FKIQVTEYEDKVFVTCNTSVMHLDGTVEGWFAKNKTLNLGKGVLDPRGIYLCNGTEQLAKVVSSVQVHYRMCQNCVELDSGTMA
Nature of the experiment: BLI (Octet), biotinylated CD3 on SA sensor. (In general: Biolayer interferometry detects binding as a change in optical thickness at a sensor tip.)
Description: (§1) The binding kinetics between proteins and antibodies was analyzed by the Biolayer Interferometry (BLI) technique using an Octet Red 96e (Fortebio) system. Human CD3E (Acro, CDE-H5223), cynomolgus CD3E (Acro, CDE-C5226) and murine CD3E (Acro, CDE-M5256) were mixed with biotin (Thermo Scientific, A39257) in a molar ratio of 1:3. The mixture was incubated at 4° C. overnight, and then excess biotin was removed to obtain biotinylated CD3E. The rotation speed was set at 1000 rpm for the system. […] After being equilibrated in the buffer for 120 s, the SA sensor with captured CD3 was allowed to bind to 2-fold serially diluted antibodies. […] Finally, the SA sensor was immersed in a 10 mM glycine-hydrochloric acid solution at pH 1.5 for regeneration to elute the antibodies bound to the sensor. […] For the interactions of fast binding and fast dissociation, the “steady state” method was selected to fit the data to obtain KD(M) values.

The target in experiment [2] is T3, Biotinylated human CD3E&D (human, UniProt P07766 23-126; P04234 22-105, biotin label).
T3 construct: also called CDD-H82W6
T3 sequence (P07766 23-126, chain 1 of 2): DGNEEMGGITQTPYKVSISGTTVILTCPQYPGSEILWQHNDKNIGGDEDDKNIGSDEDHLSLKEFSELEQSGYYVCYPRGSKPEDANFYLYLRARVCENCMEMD
T3 sequence (P04234 22-105, chain 2 of 2): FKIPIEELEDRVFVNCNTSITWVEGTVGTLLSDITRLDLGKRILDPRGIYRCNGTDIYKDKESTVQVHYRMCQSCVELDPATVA
Nature of the experiment: BLI (Octet), biotinylated CD3 on SA sensor, 1:1 global fit.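 Further: antibodies applied as analyte in 2-fold serial dilutions, with a 180 s association phase followed by a 300 s dissociation phase.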
Description: as §1

Experiment [3] concerns the target T4, Human CD3E (Acro, CDE-H5223) (human, UniProt P07766 23-126, biotinylated (mixed with biotin 1:3)).
T4 construct: also called Human CD3Ec
The experiment is described as above.
Description: as §1

Experiment [4] concerns the target T5, Biotinylated cynomolgus CD3E&D (cynomolgus, UniProt Q95LI5 22-117; Q95LI8 22-105, biotin label).
T5 construct: also called CDD-C82W6
The description is as above.
Description: as §1

The target of experiment [5] is T6, Cynomolgus CD3E (Acro, CDE-C5226) (cynomolgus, UniProt Q95LI5 22-117, biotinylated (mixed with biotin 1:3)).
T6 sequence (looked up): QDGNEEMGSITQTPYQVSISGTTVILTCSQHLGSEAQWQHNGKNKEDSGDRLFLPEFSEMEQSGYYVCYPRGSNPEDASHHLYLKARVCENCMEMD
Described as above.
Description: as §1

As a reminder, the Kd is the concentration at which binding is half-saturated. A higher Kd goes with weaker binding. What is called koff is the first-order rate constant of dissociation. A word on the kon: it is the second-order rate constant of association. Low values mean slow association, high ones fast association.

T4 sequence (P07766 23-126 limits assumed): as the sequence (P07766 23-126, chain 1 of 2) above
T5 sequence (Q95LI8 22-105, one chain of several): as the sequence (P04234 22-105, chain 2 of 2) above, with I5V, N15K, I20V, S32T, D33N, I34N, T64A, S74N, V83L counted along it
Description for human CLDN2: Antibodies were assayed for binding affinity to human CLDN18.2 paralogous proteins by FACS (ACEA NovoCyte). CLDN1, CLDN2, CLDN3, CLDN4, CLDN6 and CLDN9 genes of the human CLDN18.2 paralogous family were transiently transfected into HEK293 cells. […] The cell density was adjusted to 10⁶ cells/mL, and 50 μL of the cell suspension was added to each well of a 96-well plate. An antibody was diluted to 60 nM with FACS buffer, and 50 μL of the antibody dilution was added to each well of the 96-well plate. After 2 h of incubation at 4° C., the plate was washed twice with FACS buffer. Then, an FACS buffer containing a secondary antibody was added. After 1 h of incubation at 4° C., the plate was washed twice with FACS buffer. The cells were resuspended in fixative solution, and run FACS.

B1: PR006292 (bispecific antibody, human IgG1, lambda)
chain: EVQLVESGGGLVQPGGSLRLSCAASGFTFSSYWMHWVRQVPGKGLVWVSRISSDASRTIYADSVKGRFTISRDNAKNTLYLQMNSLRAEDTAVYYCARGEDHDILTGYPIRGQGTTVTVSSGGGGSGGGGSGGGGSEVQLVESGGGLVQPGGSLRLSCAASGFTFSSYWMHWVRQVPGKGLVWVSRISSDASRTIYADSVKGRFTISRDNAKNTLYLQMNSLRAEDTAVYYCARGEDHDILTGYPIRGQGTTVTVSSASEPKSSDKTHTCPPCPAPEAAGAPSVFLFPPKPKDTLMISRTPEVTCVVVDVSHEDPEVKFNWYVDGVEVHNAKTKPREEQYNSTYRVVSVLTVLHQDWLNGKEYKCKVSNKALPAPIEKTISKAKGQPREPQVCTLPPSREEMTKNQVSLSCAVKGFYPSDIAVEWESNGQPENNYKTTPPVLDSDGSFFLVSKLTVDKSRWQQGNVFSCSVMHEALHNHYTQKSLSLSPGK
heavy: EVQLVESGGGLVQPGGSLKLSCAASGFTFSTYAMNWVRQASGKGLEWVGRIRSKYNNYATYYADSVKDRFTISRDDSKNTAYLQMNSLKTEDTAVYYCTRHGNFGNSYVSWFAYWGQGTLVTVSSASTKGPSVFPLAPSSKSTSGGTAALGCLVKDYFPEPVTVSWNSGALTSGVHTFPAVLQSSGLYSLSSVVTVPSSSLGTQTYICNVNHKPSNTKVDKKVEPKSCDKTHTCPPCPAPEAAGAPSVFLFPPKPKDTLMISRTPEVTCVVVDVSHEDPEVKFNWYVDGVEVHNAKTKPREEQYNSTYRVVSVLTVLHQDWLNGKEYKCKVSNKALPAPIEKTISKAKGQPREPQVYTLPPCREEMTKNQVSLWCLVKGFYPSDIAVEWESNGQPENNYKTTPPVLDSDGSFFLYSKLTVDKSRWQQGNVFSCSVMHEALHNHYTQKSLSLSPGK
light: QAVVTQEPSLTVSPGGTVTLTCRSSTGAVTTSNYANWVQQKPGQAPRGLIGGTNKRAPWTPARFSGSLLGDKAALTLLGAQPEDEAEYFCALWYSNLWVFGGGTKLTVLGQPKAAPSVTLFPPSSEELQANKATLVCLISDFYPGAVTVAWKADSSPVKAGVETTTPSKQSNNKYAASSYLSLTPEQWKSHRSYSCQVTHEGSTVEKTVAPTECS
notes: structure 1; CD3 Fab from PR003886, CLDN18.2 VH from PR007245; IgG1 knob/hole, AAA (L234A, L235A, G237A)
B1: the binding result in the experiment with human CLDN2 was “no binding”; in experiment [1], “no binding (tested: 120-7.5 nM)”. The “CDC, EC50 (nM), HEK293/hCLDN18.2” value with human CLDN18.2 is 37.1 nM. For the same molecule, the Kd in experiment [2] was found to be 144 nM; in experiment [3], 99 nM; in experiment [4] it was 113 nM; in experiment [5] it was 140 nM. The koff in experiment [2] amounted to 0.0122 s⁻¹; in experiment [3], 0.00978 s⁻¹; in experiment [4] it was 0.00965 s⁻¹; in experiment [5] it was 0.0105 s⁻¹. In addition, the kon in experiment [2] stood at 84700 M⁻¹ s⁻¹; in experiment [3], 98900 M⁻¹ s⁻¹; in experiment [4], 85700 M⁻¹ s⁻¹; in experiment [5] it was 75100 M⁻¹ s⁻¹.

B2: PR006384 (bispecific antibody, human IgG1, lambda)
chain: EVQLVESGGGLVQPGGSLRLSCAASGFTFSSYWMHWVRQVPGKGLVWVSRISSTGSRTIYADSVKGRFTISRDNAKNTLYLQMNSLRAEDTAVYYCARGEDHDILTGYPIRGQGTTVTVSSGGGGSGGGGSGGGGSEVQLVESGGGLVQPGGSLRLSCAASGFTFSSYWMHWVRQVPGKGLVWVSRISSTGSRTIYADSVKGRFTISRDNAKNTLYLQMNSLRAEDTAVYYCARGEDHDILTGYPIRGQGTTVTVSSASEPKSSDKTHTCPPCPAPEAAGAPSVFLFPPKPKDTLMISRTPEVTCVVVDVSHEDPEVKFNWYVDGVEVHNAKTKPREEQYNSTYRVVSVLTVLHQDWLNGKEYKCKVSNKALPAPIEKTISKAKGQPREPQVCTLPPSREEMTKNQVSLSCAVKGFYPSDIAVEWESNGQPENNYKTTPPVLDSDGSFFLVSKLTVDKSRWQQGNVFSCSVMHEALHNHYTQKSLSLSPGK
heavy: EVQLVESGGGLVQPGGSLKLSCAASGFTFSTYAMNWVRQASGKGLEWVGRIRSKYNNYATYYADSVKDRFTISRDDSKNTAYLQMNSLKTEDTAVYYCTRHGNFGNSYVSWFAYWGQGTLVTVSSASTKGPSVFPLAPSSKSTSGGTAALGCLVKDYFPEPVTVSWNSGALTSGVHTFPAVLQSSGLYSLSSVVTVPSSSLGTQTYICNVNHKPSNTKVDKKVEPKSCDKTHTCPPCPAPEAAGAPSVFLFPPKPKDTLMISRTPEVTCVVVDVSHEDPEVKFNWYVDGVEVHNAKTKPREEQYNSTYRVVSVLTVLHQDWLNGKEYKCKVSNKALPAPIEKTISKAKGQPREPQVYTLPPCREEMTKNQVSLWCLVKGFYPSDIAVEWESNGQPENNYKTTPPVLDSDGSFFLYSKLTVDKSRWQQGNVFSCSVMHEALHNHYTQKSLSLSPGK
light: QAVVTQEPSLTVSPGGTVTLTCRSSTGAVTTSNYANWVQQKPGQAPRGLIGGTNKRAPWTPARFSGSLLGDKAALTLLGAQPEDEAEYFCALWYSNLWVFGGGTKLTVLGQPKAAPSVTLFPPSSEELQANKATLVCLISDFYPGAVTVAWKADSSPVKAGVETTTPSKQSNNKYAASSYLSLTPEQWKSHRSYSCQVTHEGSTVEKTVAPTECS
notes: structure 1; CD3 Fab from PR003886, CLDN18.2 VH from PR007246; AAA
Regarding B2, the values for the binding result (with human CLDN2; in experiment [1]) were “no binding” and “no binding (tested: 120-7.5 nM)”, respectively. Moreover, the dissociation constant (Kd) in experiment [2] was 132 nM; in experiment [3], 151 nM; in experiment [4], 152 nM; in experiment [5], 165 nM. In addition, the dissociation rate constant (koff) in experiment [2] is 0.0119 s⁻¹; in experiment [3], 0.0129 s⁻¹; in experiment [4], 0.00942 s⁻¹; in experiment [5], 0.0122 s⁻¹. Moreover, the on-rate (kon) in experiment [2] was determined as 90200 M⁻¹ s⁻¹; in experiment [3] it was 85400 M⁻¹ s⁻¹; in experiment [4] it was 62200 M⁻¹ s⁻¹; in experiment [5], 74000 M⁻¹ s⁻¹.
